From patent US20220332804A1 (CSL INNOVATION, published 2022)

Tests used:
Experiment in all cases: SPR, KD relative to WT C2;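 further: biacore SPR at 37 °C, anti-C2 mAbs captured via immobilised goat anti-human IgG, C2 alanine or serine surface mutants as analytes, 1:1 model fitted, double-referenced sensograms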
human C2 E324A = biological target: T1, human C2 E324A (human, UniProt P06681 21-752)
T1 sequence: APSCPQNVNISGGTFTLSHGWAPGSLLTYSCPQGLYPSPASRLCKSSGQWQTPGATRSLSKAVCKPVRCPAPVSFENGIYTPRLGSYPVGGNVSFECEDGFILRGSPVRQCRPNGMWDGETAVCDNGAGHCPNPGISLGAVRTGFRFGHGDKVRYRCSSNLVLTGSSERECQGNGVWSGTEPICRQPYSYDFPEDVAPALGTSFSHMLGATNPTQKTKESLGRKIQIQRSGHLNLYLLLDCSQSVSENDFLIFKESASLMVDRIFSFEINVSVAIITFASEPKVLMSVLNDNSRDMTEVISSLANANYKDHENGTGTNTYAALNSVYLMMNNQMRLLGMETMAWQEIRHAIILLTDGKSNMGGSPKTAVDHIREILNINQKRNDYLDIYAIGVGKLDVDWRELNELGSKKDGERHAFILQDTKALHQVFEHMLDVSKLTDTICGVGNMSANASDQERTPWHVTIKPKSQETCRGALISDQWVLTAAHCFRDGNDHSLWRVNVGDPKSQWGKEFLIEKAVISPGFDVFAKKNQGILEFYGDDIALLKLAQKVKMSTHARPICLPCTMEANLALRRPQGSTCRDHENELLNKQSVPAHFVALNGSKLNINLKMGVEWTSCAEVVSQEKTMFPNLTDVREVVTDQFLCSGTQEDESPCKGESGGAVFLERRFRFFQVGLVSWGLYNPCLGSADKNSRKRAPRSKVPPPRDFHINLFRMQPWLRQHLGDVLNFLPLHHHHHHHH

human C2 A326S = biological target: T2, human C2 A326S (human, UniProt P06681 21-752)
T2 sequence: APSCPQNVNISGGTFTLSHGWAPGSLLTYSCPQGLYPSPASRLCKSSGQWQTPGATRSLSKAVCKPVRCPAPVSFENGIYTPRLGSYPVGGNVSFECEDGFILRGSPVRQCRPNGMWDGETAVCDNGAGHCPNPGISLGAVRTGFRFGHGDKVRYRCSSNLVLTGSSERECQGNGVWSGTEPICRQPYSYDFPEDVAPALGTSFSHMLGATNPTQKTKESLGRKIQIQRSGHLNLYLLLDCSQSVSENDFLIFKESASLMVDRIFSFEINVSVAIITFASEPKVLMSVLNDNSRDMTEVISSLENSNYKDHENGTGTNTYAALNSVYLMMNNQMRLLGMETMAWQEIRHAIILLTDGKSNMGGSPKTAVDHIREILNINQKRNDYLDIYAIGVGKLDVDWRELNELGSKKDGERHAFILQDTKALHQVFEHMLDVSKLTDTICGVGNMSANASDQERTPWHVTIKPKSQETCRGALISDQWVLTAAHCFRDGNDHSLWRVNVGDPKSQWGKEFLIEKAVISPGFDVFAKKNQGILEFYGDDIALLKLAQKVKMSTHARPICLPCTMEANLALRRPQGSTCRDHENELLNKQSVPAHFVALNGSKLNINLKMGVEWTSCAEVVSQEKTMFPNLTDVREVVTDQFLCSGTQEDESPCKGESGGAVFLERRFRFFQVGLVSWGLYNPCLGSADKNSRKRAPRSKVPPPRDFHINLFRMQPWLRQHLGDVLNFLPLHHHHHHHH

human C2 S708A = biological target: T3, human C2 S708A (human, UniProt P06681 21-752)
T3 sequence: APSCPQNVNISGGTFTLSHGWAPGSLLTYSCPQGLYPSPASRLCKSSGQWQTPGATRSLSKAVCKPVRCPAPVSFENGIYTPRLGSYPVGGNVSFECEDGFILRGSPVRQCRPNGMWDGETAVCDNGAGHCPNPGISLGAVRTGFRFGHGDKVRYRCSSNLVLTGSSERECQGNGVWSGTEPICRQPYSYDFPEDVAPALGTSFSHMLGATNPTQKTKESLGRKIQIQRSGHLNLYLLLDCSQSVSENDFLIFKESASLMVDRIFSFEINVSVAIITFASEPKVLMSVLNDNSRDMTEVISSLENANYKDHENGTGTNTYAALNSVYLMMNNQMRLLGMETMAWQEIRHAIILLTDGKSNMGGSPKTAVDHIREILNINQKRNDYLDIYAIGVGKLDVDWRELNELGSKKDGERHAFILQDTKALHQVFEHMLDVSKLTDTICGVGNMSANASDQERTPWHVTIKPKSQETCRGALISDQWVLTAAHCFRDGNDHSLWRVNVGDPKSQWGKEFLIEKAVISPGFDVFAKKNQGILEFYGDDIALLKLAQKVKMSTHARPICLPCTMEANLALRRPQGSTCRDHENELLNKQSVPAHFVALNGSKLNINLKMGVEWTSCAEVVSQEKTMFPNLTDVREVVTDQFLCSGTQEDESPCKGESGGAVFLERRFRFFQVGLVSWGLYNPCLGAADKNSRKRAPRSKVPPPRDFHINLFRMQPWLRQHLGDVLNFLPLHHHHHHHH

human C2 K430A = biological target: T4, human C2 K430A (human, UniProt P06681 21-752)
T4 sequence: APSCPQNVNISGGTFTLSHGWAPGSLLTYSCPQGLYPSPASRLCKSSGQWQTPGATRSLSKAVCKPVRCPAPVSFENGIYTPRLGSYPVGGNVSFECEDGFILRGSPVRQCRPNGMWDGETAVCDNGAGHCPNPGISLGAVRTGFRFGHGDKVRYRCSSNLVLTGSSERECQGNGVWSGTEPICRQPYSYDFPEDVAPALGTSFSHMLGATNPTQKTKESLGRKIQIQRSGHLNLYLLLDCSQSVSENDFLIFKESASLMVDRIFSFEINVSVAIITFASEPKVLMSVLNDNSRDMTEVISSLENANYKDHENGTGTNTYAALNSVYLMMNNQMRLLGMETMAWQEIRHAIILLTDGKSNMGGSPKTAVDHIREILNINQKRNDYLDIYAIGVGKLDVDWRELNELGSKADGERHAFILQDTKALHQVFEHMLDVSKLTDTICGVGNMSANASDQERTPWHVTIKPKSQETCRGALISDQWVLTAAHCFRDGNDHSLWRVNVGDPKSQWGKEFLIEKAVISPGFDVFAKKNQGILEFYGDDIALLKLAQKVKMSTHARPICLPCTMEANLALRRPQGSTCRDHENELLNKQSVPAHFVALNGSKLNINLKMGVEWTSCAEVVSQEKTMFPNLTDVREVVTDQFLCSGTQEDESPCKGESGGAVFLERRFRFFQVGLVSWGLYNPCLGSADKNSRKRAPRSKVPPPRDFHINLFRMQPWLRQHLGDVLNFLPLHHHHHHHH

B1: RF16-226 (antibody, human IgG4 S228P, lambda)
heavy: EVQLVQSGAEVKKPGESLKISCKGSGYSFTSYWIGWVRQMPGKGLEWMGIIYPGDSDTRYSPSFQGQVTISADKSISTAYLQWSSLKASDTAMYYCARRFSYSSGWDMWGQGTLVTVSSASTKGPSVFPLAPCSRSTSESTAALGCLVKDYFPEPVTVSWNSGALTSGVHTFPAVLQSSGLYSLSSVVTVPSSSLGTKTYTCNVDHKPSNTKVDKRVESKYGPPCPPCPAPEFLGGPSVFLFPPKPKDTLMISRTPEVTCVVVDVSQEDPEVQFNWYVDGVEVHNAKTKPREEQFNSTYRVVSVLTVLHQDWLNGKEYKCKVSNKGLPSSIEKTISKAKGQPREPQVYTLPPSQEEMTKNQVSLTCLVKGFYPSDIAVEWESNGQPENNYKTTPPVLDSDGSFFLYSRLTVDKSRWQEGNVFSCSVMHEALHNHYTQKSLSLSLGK
light: SYELTQPPSVSVSPGQTARITCSGDALTSKYVAWYQQKSGLAPLLVIYEDTRRPSGIPAKFSGSSSGSVATLTISGAHGDDEADYYCYSTDASGHQRVFGGGTKLTVLSQPKAAPSVTLFPPSSEELQANKATLVCLISDFYPGAVTVAWKADGSPVKAGVETTKPSKQSNNKYAASSYLSLTPEQWKSHRSYSCQVTHEGSTVEKTVAPTECS
notes: pH-dependent anti-C2 antibody from a phage display library; also called WT
- Fold diff (human C2 E324A): 1 fold
- Fold diff (human C2 A326S): 1 fold
- Fold diff (human C2 S708A): 2 fold
- Fold diff (human C2 K430A): 6 fold
